These are literature values, as cited in publication PMC13341169.

Data set [1] concerns the target PKA C-subunit (Homo sapiens) (UniProt P17612).
Data set [2] shares this target. This is another data set of the same source.

Like-named read-outs stand apart in the source and are kept apart here.

For PKIβ (from UniProt Q9C010), the Kd (as a rule, a measure of binding affinity in units of concentration) in data set [1] is 7.1 nM.
As to PKIγ (from UniProt Q9Y2B9), the Kd in data set [2] was 0.4 nM.
